According to the nanobody polyreactivity screen of Harvey et al. (2022):

Assay: yeast display, Sf9 membrane polyspecificity reagent, FACS + sequencing; frameworks hold sequencing errors
Procedure, shortened: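 Using colony PCR, genes from sorted yeast display clones were amplified, then sequenced on MiSeq at 2 × 250 and filtered by CDR length. The clones had been stained with 10% biotinylated, detergent-solubilized Sf9 membrane reagent for 1 hour at 4 °C and sorted by FACS into low and high (top ~1%) gates on anti-HA and streptavidin fluorescence. Polyreactivity labels come from the gate of origin.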

Sequence	polyreactivity (PSR sort gate)
QVQLVESGGGLVQAGGSLRLSCAASGGTYGTNAMGWYRQAPGKERELVAAITKTGVRTYYADSVKGRFTISRDNAKNTVYLQMNSLKPEDTAVYYCAAGNPAWPFNYWGQGTQVTVSS	high polyreactivity
QVHLVESGGGLVQAGGSLRLSCAASGTIFGINAMGWYRQAPGKERELVAGITSGGSTYYADSLKGRFTISRDNAKNTVDLQMNILKPEDTAVYYCAAVANQWYTEREYWGQGTQVTVSS	low polyreactivity
QVQLVESGGGLVQAGGSLRLSCAASGRTFRYYAMGWYRPAPGKERELVATITGSGGSTYYADSVKGRFTISRDNAKNTVYLQMNSLKPEDTAVYYCNARKVRYPYRWYDYWGQGTQVTVSS	high polyreactivity
QVQLVKSGGGLVQAGGSLRLSCAASGRIFVGYVMGWYIQAPGKARELVAAIDSGRRTNYADSVKGRFTISRDNAKNTVYLQINSLKPEDTAVYYCNREAAHGSLRWTEMEYWGQGTQVTVSS	low polyreactivity
QVQLVESGGGLVQAGGSLRLSCAASGNTFRSYVMGWYRPAPGKARELVADISSGDGTNYADSVKGRFTISRDTAKNTVYLQMNSLKPEDTAVYYCAKDVYNFRSTHSYFTGYVSWGQGTQVTVSW	low polyreactivity
QVHLVESGGGLVHAGGSLRLSSAASGSIFGANTMGWYRQAPGKERELVAGITSGARTYYADSVKGRFTISRDNAKNTVYLQMNSLKPEDTAVYYCAAKYAWRRYGFWGQGTQVTVSS	high polyreactivity
QVHLVESGGGLVEAGGSLRLSCADSGNIFAWYAMGWYRQAPGKERELVADISSLGGSTYYADSVKGRFTISRDNATNTVYLQMNSLKPEDTEVYYCAAVWYWTQDYDYWGQGTQVTVSS	low polyreactivity
QVQLVESGGGLVQAGGSLRLSCAASGRIFYVNAMGWYRQAPGKERELVATINYTDGSTYYADSVKGRFTISRDKAKNTVYLQMNSMKPEDTAVYYCAADAVWYDFVAYWTTYYYWGPGTQVTVSS	low polyreactivity
QLQLVESGGGLVQAGGSLRLSCAASGLTFYSYPMGWYRQARGKERELVATIRSSGGSSYYADSVKGRFTISRDNAKNTVYLQMNSLKPEDTAVYYCAARWGPYAFTYVRTYDYWGHGTQVTVSS	low polyreactivity
QVQLVESGGGLVQAGGSLRLSCPDSGFIFYLYDMGWYRQAPGKEREVVAAITDRGGSTYYADSVKGRFTITRDNAKITVYLQLKSLKPEDTAVYSCAAASSAIDSSVTMDYWGQGTQVTVSS	low polyreactivity
QVQLVESGGGLVQAGGSLRLSCAASGLIFPYNAMGWYRQAPGKERELVAAIDSGVTTYYADSVKGRFTISRDNAKNTVYLQMNSLKPEDTAVYFCAADGLPGPEGDSWGQGTQVSVSS	low polyreactivity
QVQHVASGGGLVQAGGSLRLSCAASGSTFVYYAMGWYRQAPGKERELFADITKSGGSTFYAESVKGRFTISRDNAKNTVYLQMNSLKPEDTAVFYCGARYKGQYYRQGRHDYWGQGSQVTVSS	high polyreactivity
QVQLVESGGGLVQAGGSLRLSCAASGNTFTWYTMGWYRQAPGKERELVAVITSDGSTYYADSVKGRFTISRDNAKNTVDLQMNSLKPEDTAVYYCNALSADWYPEEDYWGQGTQVTVSS	low polyreactivity
QVQLVESGGGLVQAGGSLRLSCADSGLTFGSNGMGWYRQAPGKERELVAAISRGGSTSYAVSVKGRFTISRDNAKNTVYLQMNSLKPEDTAVYYCAARSYRYSYRYRAFDYWGQGSQVTVSS	high polyreactivity
QVQLVESGGGLVQAGGSLRLSCAASGLTFVDYAMGWYRQAPGKERELVADYYFQRWFYGLRRLCEGALHNFTRQCQEYRNLQMNSLKPEDTAVYYCNTDGPTVAYSEYYYWGQGTQVTVSS	low polyreactivity
QVQLVESGGGLVQAGGSLRLSCAASGSTFVYYAMVWYRQAPGKERELVAAITGSVDSTYYADSVKGRFTISRDNAKNTVYLQMNSVKPEDTAVYYCAADTYSTYWGQGTQVTVSS	low polyreactivity
QVQLVESGGGLVQAGGSLRLSCAASGRIFKYNAMGWYRQAPGKERELVAAISSSGGSTYYADSVKGRFTISRDNAKNTVYLQMNSLKPEDTAVYYCAARYAPTLSVYRFYYWGQGTQVTVSS	high polyreactivity
QVQLVESGGGLVQAGGSLRLSCAASGSLSSRNAMGAYRQAPGKERELVAAITRGSSTNYADSVKGRFTISRDNAKNTVYLQMNSLKPEDTAVYYCARRYDPVYKGMGYWGQGTQVTVSS	low polyreactivity
QVQLVESGGGLVQAGGSLRLSCAASGITFYTYTMGWYRQAPGKERELVAAISRSSGRTYYADSVKGRFTISRDNAKNTVYLQMNSLKPEDTAVYYCAAYAVESYKYDYWGQGTQVTVSS	high polyreactivity
QVQLVESGGGLVQAGGSLRISCADSGSIFHPNAMGWYRQAPGKERELVAAISIGGDTYYADSVKGRFTISRDNAKNTVYLQMNSLKPEDTAVYYCAVTYVGHVYEYYYWGQGTQVTVSS	low polyreactivity
QVQLVDSGGGLVQAGGSLRLSCAASGRTFWYYDMGWYRQAPGKERELVATINNVGSTHYADSVKGRFTISRDNAKNTVYLQMNSLNPEDTAVYYCARASYGKMDYWGQGTQLTVSS	high polyreactivity
QVQLVESGGGLVQAGGSLRLSCAASGSTFGQYAMGWYRQAPGKELELVAAISSGGRTNYADSVKGRFTISRDNAKNPVYLQMNSLKPEDTAVYYCAARYYFPFRRFRRMDYWGQGTQVTVSS	high polyreactivity

Sequence	polyreactivity (PSR sort gate)
QVQLVESGGGLVQAGGSLRLSCAASGRTFRTYAMGWYRQAPGKERELVAITTSGGSTYYADSVKGRFTISRDNAKNTVYLQMNSLKPEDTAVYYGAAQWRSYYDQYGYDYWGQGTQVTVSS	low polyreactivity
QVQLVESGGGLVQAGGSLRLSCAASVSIFGYNTMGRYRQAPGKERELVARIRASGGSTYYADSVKGRFTISRDNAKNTVYLQMNSLKPEDTAVYYCAKYLRGSWVRQFGSTYDYWGQGTQVTVSS	high polyreactivity
QVQLVESGGGLVQAGGSLSLSCAAYGITISIYSMGSYRQAPGKERELVAAINSGGTTYYADSVKGRFTISRDNAKNTVYLQMNSLKPEDTAVYYCADEYFAYPYEFYGGQGTQVTVSS	high polyreactivity
QVQLVESGGGLVQAGGSLRLSCAASGFNFGTYAMGWYRQAPGKERELVAAISSGGSTYYADSVKGRFTISRDNAKNTVYLQMNSLKPEDTAVYYCAKEGGTYRIFNYWGQGTQVTVSS	low polyreactivity
QVQLVESGGGLVQAGCSLRLSSAASGSTFLGYAMGWYRQAPGKERELVAAITYSAGSTYYADSVKGRFTISRDNAKNTVYLQMNSLKPEDTAVYYCSKRYSGYDHWGQGTQVTVSS	low polyreactivity
QVQLVESGGGLVQAGGSLRLSCAASGFTFNRTAMGWYRQAPGKERELVAAITRRGGSTYYADSVKGRFTISRDNAKNTVYLQMNSLKPEDTAVYYCAARRGAGDGYWGQGTQVTVSS	high polyreactivity
QVQLVESGGGLVQAGGSLRLSCAASGITFYPNDMGWYRQAPGKERELVAAITTNDGDTYYADSVKGRFTISRDNAKNTVYVQMNSLKPEDTAVYYCATGIDKGPVWVTYSTDYDYWGQGTQVTVSS	low polyreactivity
QVKLGESGGGLVQAGGSLLLSCAASGRTFWYYTMGWYRQAPGKERELVASITAGSGTTYYADSVKGRFTISRHNAKNTVYFQMYSLKPEDSAGYYCSSKNTPSFFYYDRYDYWGHGTQVTVSS	low polyreactivity
QVQLVESGGGLVQAGGSLRLSCAASGFTFYKYAMGWYRPAPGKERELVAAITWSGGRTYYADSVKGRFTISRDNAKNTVYLKMNSLKPEDTAVYYCTARQKQGNFDYWGQGTQVTVSS	high polyreactivity
QVQLVESGGGLVQAGGSLRLSCAASGRTFKYYAMGWYRQAPGKERELVAAISRGGSTNYADSVKGRFTISRDNAKNTVYLQVNSLKPEDTPVYYCAKDYVWYDEYDYWGQGTQVTVSS	low polyreactivity
QVQLVESPGGLVQAGGSLRLSCAASGSIFGSYAMGWYRQEPGKEREFVAVITSASTNYADSVKGRFTISRDNAKNTVNLQLNSLKPEDTAVYYCNKRGTRIRRTNKSHGVDYWGQGTQVTVSS	low polyreactivity
QVQLVESGGGLVQAGGSLRLSCAASGFTFGYYAMGWYRQAPGKERELVAAISSSGGSTYYADSVKGRFTISRDNAKNTVYLQMNSLKQEDTAVYYCSTGFLQNYYKYSSSFRFYYWGQGTQVTVSS	high polyreactivity
QVQLVESGGGLVQAGGSLRLSCAASGLTFFKYTMGWYRQPPGKERELVSAINGGGSTNYADSVKGRFSISRDNAKNTVYLQMNSLKPEDTAVYYCAAGLQYGYDYWGQGTQVTVSS	low polyreactivity
QVQLVESGGGLVQAGGSLRLSCAGSGSIFGVYDLGWYRQAPGKERELVAVINSNGGSTYYADSVKGRFTISRDNAKNTVYLQMNSLKPEDTAVYYCAADYQSYVYIGYGYWGQGTQVTVSS	low polyreactivity
QVQLVESGGGLVQGGGSLRLSCAASGLIFYRNDMVWNRQAPGKERELVDAISKNGANTYYADSVKGRFTSSRDNAKNTVYLHMNCLKREDTAVYYCAKGVYYPWWYVQPEHDYWGQVTQVTVSS	high polyreactivity
QVQLVESGGGLVQAGGSLRLTCAASGSILYYAMGWYRQAPGKERELVAAITRSGTTTYYAASVKGRFTISRDNAKKTVYLQMNSLKPEDTAVYFWAARTSYDYDYWGQGTQVTVSS	high polyreactivity
QVQLVESGGGLVQAGGSLRLSCAASGFTFQFYDMGWYRQAPGTEREFVATITSSGGSTYYADSVKGRFTISRDNAKNTVYLQMNSLKPEDPAVYYCANDKLFFYRVGSDYWGQGTQVTVSS	low polyreactivity
QVQLEESGGGLVQAGGSLRLSCAASGSIFVYYARGWYRQAPGKERELVATISRRGGSTYYADSVKGRFTISRDNAKNTVYLQMTSLKPEDTAVDYCNAAPSPVGSARSSLTRYTGMDYWGQGTQVSVSS	high polyreactivity
QVQLVESGGGLVQAGGSLRLSCAASGSIIGRYAMGWYRQAPGKERELVAAISTGGGRTYYADSVKGRFTISRDNAKNTVYLQLNSLKPEDTAVYYCNAGPYKGWGRMDYWGQGTQVTVSS	high polyreactivity
QVQLVESGGGLVQAGGSLRLSCAASGRIFSNYAMGWYRQAPGKERELVAAISYSGDSTYYADSVKGRFTISRDNAKNTVYLQMNSLKPEDTAVYYCAAVRSYRRYPQSSDLYYYWGQGTQVTVSS	high polyreactivity
QVQLEESGGGLVQAGGSLRLSCAASGITFRAYAMGWYRQAPGKERELVAAITGRGGRTYYADSVKGRFTISRDNAKNTVYLQMNSLKPEDPAVYYCNAYLWRVNQTYDYWGQGTQVTVSS	high polyreactivity
